From patent publication US20240317868A1 (Boehringer Ingelheim, published 2024) come the findings set out here.

To fix the notation:
T1: human IL1RAP (human, UniProt Q9NPH3 21-367, limits assumed, biotinylated in the ELISA screens (site not stated))
T1 construct: also called huIL1RAP; IL1RAP antigen
T1 sequence (looked up): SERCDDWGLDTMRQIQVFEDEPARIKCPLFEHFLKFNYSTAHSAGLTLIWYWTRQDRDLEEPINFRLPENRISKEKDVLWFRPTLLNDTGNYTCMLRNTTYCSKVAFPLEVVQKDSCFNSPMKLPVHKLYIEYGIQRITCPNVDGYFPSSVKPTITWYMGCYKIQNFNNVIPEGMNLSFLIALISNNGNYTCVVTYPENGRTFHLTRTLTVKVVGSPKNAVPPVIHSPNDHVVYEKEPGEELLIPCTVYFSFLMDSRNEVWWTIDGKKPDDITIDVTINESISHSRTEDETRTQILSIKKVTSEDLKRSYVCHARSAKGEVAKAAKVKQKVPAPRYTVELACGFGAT

B1: GO11 chimeric IgG, heavy chain point mutant VH-D56G (antibody, V domains shown)
VH: QVHLQQSGPELVRPGTSVKISCEASGYIFLTYWMNWVKQRPGQGLEWIGQIFPASGSTYYNEMFKDKARFTVDKSSSTAYMQFSSLTSEDTAVYFCARSGPYSYYAGGYALDYWGQGTSVTVSS
VL: DIQMTQSPASLSASVGETVTITCRTSENINSYLAWYQQKQGKSPQLLVHYAKTLAEGVPSRFSGSGSGTQFSLKINSLKPEDFGSYYCQHHYGTSLTFGAGTKLELK
notes: Heavy chain mutant paired with the parental chimeric light chain; IgG backbone, expressed in CHO-E
B2: VH-Y27G (antibody, V domains shown)
VH: QVHLQQSGPELVRPGTSVKISCEASGGIFLTYWMNWVKQRPGQGLEWIGQIFPASDSTYYNEMFKDKARFTVDKSSSTAYMQFSSLTSEDTAVYFCARSGPYSYYAGGYALDYWGQGTSVTVSS
VL: DIQMTQSPASLSASVGETVTITCRTSENINSYLAWYQQKQGKSPQLLVHYAKTLAEGVPSRFSGSGSGTQFSLKINSLKPEDFGSYYCQHHYGTSLTFGAGTKLELKR
notes: germlining point mutant, paired with the parental chimeric light chain; also called GO11 chimeric IgG, heavy chain point mutant Y27G; copies: 2 + 2
B3: GO11 chimeric IgG, heavy chain point mutant VH-M63K (antibody, V domains shown)
VH: QVHLQQSGPELVRPGTSVKISCEASGYIFLTYWMNWVKQRPGQGLEWIGQIFPASDSTYYNEKFKDKARFTVDKSSSTAYMQFSSLTSEDTAVYFCARSGPYSYYAGGYALDYWGQGTSVTVSS
VL: DIQMTQSPASLSASVGETVTITCRTSENINSYLAWYQQKQGKSPQLLVHYAKTLAEGVPSRFSGSGSGTQFSLKINSLKPEDFGSYYCQHHYGTSLTFGAGTKLELK
notes: as for B1
B4: GO11 chimeric IgG, heavy chain point mutant VH-K65Q (antibody, V domains shown)
VH: QVHLQQSGPELVRPGTSVKISCEASGYIFLTYWMNWVKQRPGQGLEWIGQIFPASDSTYYNEMFQDKARFTVDKSSSTAYMQFSSLTSEDTAVYFCARSGPYSYYAGGYALDYWGQGTSVTVSS
VL: DIQMTQSPASLSASVGETVTITCRTSENINSYLAWYQQKQGKSPQLLVHYAKTLAEGVPSRFSGSGSGTQFSLKINSLKPEDFGSYYCQHHYGTSLTFGAGTKLELK
notes: as for B1
B5: VH-Q50R (antibody, V domains shown)
VH: QVHLQQSGPELVRPGTSVKISCEASGYIFLTYWMNWVKQRPGQGLEWIGRIFPASDSTYYNEMFKDKARFTVDKSSSTAYMQFSSLTSEDTAVYFCARSGPYSYYAGGYALDYWGQGTSVTVSS
VL: DIQMTQSPASLSASVGETVTITCRTSENINSYLAWYQQKQGKSPQLLVHYAKTLAEGVPSRFSGSGSGTQFSLKINSLKPEDFGSYYCQHHYGTSLTFGAGTKLELKR
notes: germlining point mutant, paired with the parental chimeric light chain; also called GO11 chimeric IgG, heavy chain point mutant Q50R; copies: 2 + 2
B6: VH-S57I (antibody, V domains shown)
VH: QVHLQQSGPELVRPGTSVKISCEASGYIFLTYWMNWVKQRPGQGLEWIGQIFPASDITYYNEMFKDKARFTVDKSSSTAYMQFSSLTSEDTAVYFCARSGPYSYYAGGYALDYWGQGTSVTVSS
VL: DIQMTQSPASLSASVGETVTITCRTSENINSYLAWYQQKQGKSPQLLVHYAKTLAEGVPSRFSGSGSGTQFSLKINSLKPEDFGSYYCQHHYGTSLTFGAGTKLELKR
notes: germlining point mutant, paired with the parental chimeric light chain; also called GO11 chimeric IgG, heavy chain point mutant S57I; copies: 2 + 2
B7: VH-F52I (antibody, V domains shown)
VH: QVHLQQSGPELVRPGTSVKISCEASGYIFLTYWMNWVKQRPGQGLEWIGQIIPASDSTYYNEMFKDKARFTVDKSSSTAYMQFSSLTSEDTAVYFCARSGPYSYYAGGYALDYWGQGTSVTVSS
VL: DIQMTQSPASLSASVGETVTITCRTSENINSYLAWYQQKQGKSPQLLVHYAKTLAEGVPSRFSGSGSGTQFSLKINSLKPEDFGSYYCQHHYGTSLTFGAGTKLELKR
notes: germlining point mutant, paired with the parental chimeric light chain; also called GO11 chimeric IgG, heavy chain point mutant F52I; copies: 2 + 2
B8: GO11 chimeric IgG, heavy chain point mutant VH-L30S (antibody, V domains shown)
VH: QVHLQQSGPELVRPGTSVKISCEASGYIFSTYWMNWVKQRPGQGLEWIGQIFPASDSTYYNEMFKDKARFTVDKSSSTAYMQFSSLTSEDTAVYFCARSGPYSYYAGGYALDYWGQGTSVTVSS
VL: DIQMTQSPASLSASVGETVTITCRTSENINSYLAWYQQKQGKSPQLLVHYAKTLAEGVPSRFSGSGSGTQFSLKINSLKPEDFGSYYCQHHYGTSLTFGAGTKLELK
notes: as for B1
B9: GO11 chimeric IgG, heavy chain point mutant VH-M34I (antibody, V domains shown)
VH: QVHLQQSGPELVRPGTSVKISCEASGYIFLTYWINWVKQRPGQGLEWIGQIFPASDSTYYNEMFKDKARFTVDKSSSTAYMQFSSLTSEDTAVYFCARSGPYSYYAGGYALDYWGQGTSVTVSS
VL: DIQMTQSPASLSASVGETVTITCRTSENINSYLAWYQQKQGKSPQLLVHYAKTLAEGVPSRFSGSGSGTQFSLKINSLKPEDFGSYYCQHHYGTSLTFGAGTKLELK
notes: as for B1
B10: GO11 chimeric IgG, heavy chain point mutant VH-T58A (antibody, V domains shown)
VH: QVHLQQSGPELVRPGTSVKISCEASGYIFLTYWMNWVKQRPGQGLEWIGQIFPASDSAYYNEMFKDKARFTVDKSSSTAYMQFSSLTSEDTAVYFCARSGPYSYYAGGYALDYWGQGTSVTVSS
VL: DIQMTQSPASLSASVGETVTITCRTSENINSYLAWYQQKQGKSPQLLVHYAKTLAEGVPSRFSGSGSGTQFSLKINSLKPEDFGSYYCQHHYGTSLTFGAGTKLELK
notes: as for B1
B11: VH-W33Y (antibody, V domains shown)
VH: QVHLQQSGPELVRPGTSVKISCEASGYIFLTYYMNWVKQRPGQGLEWIGQIFPASDSTYYNEMFKDKARFTVDKSSSTAYMQFSSLTSEDTAVYFCARSGPYSYYAGGYALDYWGQGTSVTVSS
VL: DIQMTQSPASLSASVGETVTITCRTSENINSYLAWYQQKQGKSPQLLVHYAKTLAEGVPSRFSGSGSGTQFSLKINSLKPEDFGSYYCQHHYGTSLTFGAGTKLELKR
notes: germlining point mutant, paired with the parental chimeric light chain; also called GO11 chimeric IgG, heavy chain point mutant W33Y; copies: 2 + 2
B12: GO11 chimeric IgG, heavy chain point mutant VH-N35S (antibody, V domains shown)
VH: QVHLQQSGPELVRPGTSVKISCEASGYIFLTYWMSWVKQRPGQGLEWIGQIFPASDSTYYNEMFKDKARFTVDKSSSTAYMQFSSLTSEDTAVYFCARSGPYSYYAGGYALDYWGQGTSVTVSS
VL: DIQMTQSPASLSASVGETVTITCRTSENINSYLAWYQQKQGKSPQLLVHYAKTLAEGVPSRFSGSGSGTQFSLKINSLKPEDFGSYYCQHHYGTSLTFGAGTKLELK
notes: as for B1
B13: GO11 chimeric IgG, heavy chain point mutant VH-N61A (antibody, V domains shown)
VH: QVHLQQSGPELVRPGTSVKISCEASGYIFLTYWMNWVKQRPGQGLEWIGQIFPASDSTYYAEMFKDKARFTVDKSSSTAYMQFSSLTSEDTAVYFCARSGPYSYYAGGYALDYWGQGTSVTVSS
VL: DIQMTQSPASLSASVGETVTITCRTSENINSYLAWYQQKQGKSPQLLVHYAKTLAEGVPSRFSGSGSGTQFSLKINSLKPEDFGSYYCQHHYGTSLTFGAGTKLELK
notes: as for B1
B14: GO11 chimeric IgG, heavy chain point mutant VH-I28T (antibody, V domains shown)
VH: QVHLQQSGPELVRPGTSVKISCEASGYTFLTYWMNWVKQRPGQGLEWIGQIFPASDSTYYNEMFKDKARFTVDKSSSTAYMQFSSLTSEDTAVYFCARSGPYSYYAGGYALDYWGQGTSVTVSS
VL: DIQMTQSPASLSASVGETVTITCRTSENINSYLAWYQQKQGKSPQLLVHYAKTLAEGVPSRFSGSGSGTQFSLKINSLKPEDFGSYYCQHHYGTSLTFGAGTKLELK
notes: as for B1
B15: VH-S55L (antibody, V domains shown)
VH: QVHLQQSGPELVRPGTSVKISCEASGYIFLTYWMNWVKQRPGQGLEWIGQIFPALDSTYYNEMFKDKARFTVDKSSSTAYMQFSSLTSEDTAVYFCARSGPYSYYAGGYALDYWGQGTSVTVSS
VL: DIQMTQSPASLSASVGETVTITCRTSENINSYLAWYQQKQGKSPQLLVHYAKTLAEGVPSRFSGSGSGTQFSLKINSLKPEDFGSYYCQHHYGTSLTFGAGTKLELKR
notes: germlining point mutant, paired with the parental chimeric light chain; also called GO11 chimeric IgG, heavy chain point mutant S55L; copies: 2 + 2
B16: GO11 chimeric IgG, heavy chain point mutant VH-E62Q (antibody, V domains shown)
VH: QVHLQQSGPELVRPGTSVKISCEASGYIFLTYWMNWVKQRPGQGLEWIGQIFPASDSTYYNQMFKDKARFTVDKSSSTAYMQFSSLTSEDTAVYFCARSGPYSYYAGGYALDYWGQGTSVTVSS
VL: DIQMTQSPASLSASVGETVTITCRTSENINSYLAWYQQKQGKSPQLLVHYAKTLAEGVPSRFSGSGSGTQFSLKINSLKPEDFGSYYCQHHYGTSLTFGAGTKLELK
notes: as for B1
B17: GO11 chimeric IgG, heavy chain point mutant VH-D66G (antibody, V domains shown)
VH: QVHLQQSGPELVRPGTSVKISCEASGYIFLTYWMNWVKQRPGQGLEWIGQIFPASDSTYYNEMFKGKARFTVDKSSSTAYMQFSSLTSEDTAVYFCARSGPYSYYAGGYALDYWGQGTSVTVSS
VL: DIQMTQSPASLSASVGETVTITCRTSENINSYLAWYQQKQGKSPQLLVHYAKTLAEGVPSRFSGSGSGTQFSLKINSLKPEDFGSYYCQHHYGTSLTFGAGTKLELK
notes: as for B1

In the experiment the target is T1, human IL1RAP. Kind of experiment: ELISA of point mutant IgG (heavy chain mutant with the parental chimeric light chain, CHO-E expression), one bar each, concentration not given. An excerpt: For light chain 13 variants (T25A, E27Q, N28S, N30S, Y50A, K52S, T53Y, A55Q, E56S, H90Q, H91S, G93S and S95P) and 19 heavy chain variants (Y27G, I28T, L30S, T31S, W33Y, M34I, N35S, Q50R, F521, A541, S55L, D56G, S57I, T58A, N61A, E62Q, M63K, K65Q and D66G) were generated separately in the vector pTT5 (See FIG. 3A/B). The light chain mutants were paired with the parental chimeric heavy chain and heavy chain mutants were paired with parental chimeric light chain for expression analysis in CHO-E cells for 7 days. The resulting variants were evaluated for binding in ELISA experiments and compared to the parental chimeric IgG which has mouse variable region but human constant regions. For light chain variants, six point mutants VK-T25A, E27Q, N28S, N30S, K52S and T53Y depicted binding similar to chimeric IgG (+10% control; FIG. 3A) while for heavy chain […] point mutants VH-I28T, L30S, M34I, N35S, D56G, T58A, N61A, E62Q, M63K, K65Q and D66G depicted similar binding as chimeric IgG (+10% control; FIG. 3B).
For B1, the binding result was “binds”.

Consider B2, for which the binding result is on record as “binds”.

For B3, the binding result is recorded as “binds”.

As to B4, the binding result is given as “binds”.

In the case of B5, the binding result is “binds”.

Turning to B6, the binding result is given as “binds”.

As for B7, the binding result was “binds”.

Regarding B8, the binding result is “binds”.

For B9, the binding result was “binds”.

Regarding B10, the binding result is “binds”.

Take B11: the binding result is recorded as “binds”.

With B12, the binding result was “binds”.

Regarding B13, the binding result is reported as “binds”.

For the molecule B14, the binding result was “binds”.

As for B15, the binding result was “no binding”.

On to B16, for which the binding result is “binds”.

For B17, the binding result is reported as “binds”.
